{"source": "paper PMC4860841", "about": "“eIF2 interactions with initiator tRNA and eIF2B are regulated by post-translational modifications and conformational dynamics” (Cell Discovery, 2015)", "binders": {"B1": {"name": "eukaryotic initiation factor 2 α-subunit (eIF2α) (natural protein, Saccharomyces cerevisiae, UniProt P20459 1-304, looked up)", "chain": "MSTSHCRFYENKYPEIDDIVMVNVQQIAEMGAYVKLLEYDNIEGMILLSELSRRRIRSIQKLIRVGKNDVAVVLRVDKEKGYIDLSKRRVSSEDIIKCEEKYQKSKTVHSILRYCAEKFQIPLEELYKTIAWPLSRKFGHAYEAFKLSIIDETVWEGIEPPSKDVLDELKNYISKRLTPQAVKIRADVEVSCFSYEGIDAIKDALKSAEDMSTEQMQVKVKLVAAPLYVLTTQALDKQKGIEQLESAIEKITEVITKYGGVCNITMPPKAVTATEDAELQALLESKELDNRSDSEDDEDESDDE", "modifications": "found in the purified protein (Table 1): N-term-ac-S2, pS194, pS292, pS294, pS301", "notes": "eIF2 α-subunit, encoded by SUI2 in yeast Saccharomyces cerevisiae; Expressed from plasmid pAV1089 [SUI2 SUI3 6xHisGCD22 URA3]; N-terminal acetylation on S2 implies that the first methionine is removed; also called SUI2; source: S. cerevisiae strain GP3511 overexpressing the three eIF2 subunits"}, "B2": {"name": "eukaryotic initiation factor 2 β-subunit (eIF2β) (natural protein, Saccharomyces cerevisiae, UniProt P09064 1-285, looked up)", "chain": "MSSDLAAELGFDPALKKKKKTKKVIPDDFDAAVNGKENGSGDDLFAGLKKKKKKSKSVSADAEAEKEPTDDIAEALGELSLKKKKKKTKDSSVDAFEKELAKAGLDNVDAESKEGTPSANSSIQQEVGLPYSELLSRFFNILRTNNPELAGDRSGPKFRIPPPVCLRDGKKTIFSNIQDIAEKLHRSPEHLIQYLFAELGTSGSVDGQKRLVIKGKFQSKQMENVLRRYILEYVTCKTCKSINTELKREQSNRLFFMVCKSCGSTRSVSSIKTGFQATVGKRRRM", "modifications": "found in the purified protein (Table 1): N-term-ac-S2, pS40, acK89, pS91, pS92, pS112", "notes": "eIF2 β-subunit, encoded by SUI3 in yeast Saccharomyces cerevisiae; Expressed from plasmid pAV1089 [SUI2 SUI3 6xHisGCD22 URA3]; N-terminal acetylation on S2 implies that the first methionine is removed; also called SUI3; source: S. cerevisiae strain GP3511 overexpressing the three eIF2 subunits"}}, "key": {"[1]": {"target": "T1, eukaryotic initiation factor 2 γ-subunit (eIF2γ), His-tagged (Saccharomyces cerevisiae, UniProt P32481 1-527, found in the purified protein (Table 1): pT60, acK129, pT137, pS258, pS265, pS312, acK401, acK519)", "T1 construct": "eIF2 γ-subunit, encoded by GCD11 in yeast Saccharomyces cerevisiae (the methods print the plasmid's gene as '6xHisGCD22'); also called GCD11; source: S. cerevisiae strain GP3511 overexpressing the three eIF2 subunits", "T1 sequence (P32481 whole entry)": "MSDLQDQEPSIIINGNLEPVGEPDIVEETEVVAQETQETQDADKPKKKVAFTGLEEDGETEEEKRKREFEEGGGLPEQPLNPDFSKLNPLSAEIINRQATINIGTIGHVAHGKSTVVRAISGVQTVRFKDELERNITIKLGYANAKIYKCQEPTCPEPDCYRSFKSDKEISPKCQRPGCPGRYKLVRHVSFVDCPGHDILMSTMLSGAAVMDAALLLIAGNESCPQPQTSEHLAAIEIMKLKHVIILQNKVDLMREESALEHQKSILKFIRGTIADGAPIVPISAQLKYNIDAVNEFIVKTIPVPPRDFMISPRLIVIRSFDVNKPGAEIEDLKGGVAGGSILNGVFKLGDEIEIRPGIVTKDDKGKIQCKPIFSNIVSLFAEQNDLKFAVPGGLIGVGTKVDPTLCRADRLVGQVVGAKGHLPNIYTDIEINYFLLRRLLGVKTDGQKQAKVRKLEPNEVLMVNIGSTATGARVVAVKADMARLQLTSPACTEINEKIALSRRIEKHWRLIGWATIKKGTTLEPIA", "test": "native MS; intact His-tagged eIF2 purified from yeast, buffer exchanged against 500 mM ammonium acetate; QSTAR XL modified for high-mass complexes; tandem MS of the 24+ charge state of intact eIF2", "details": "both partners purified"}, "[2]": {"target": "B1", "test": "cross-linking; purified apo eIF2 with a 1:1 mixture of 2.5 mM BS3-d0/d4, 1 h, room temperature; gel, trypsin, LC-MS/MS; also compared with the ternary complex (Met-tRNAi^Met, GDPNP) by BS3-d0 against BS3-d4", "details": "both partners purified"}}}
{"binder": "B1", "values": [{"measurement": "stoichiometry N", "setting": "[1]", "value": 1}]}
{"binder": "B2", "values": [{"measurement": "stoichiometry N", "setting": "[1]", "value": 1}, {"measurement": "binding result", "setting": "[2]", "value": "binds"}]}
